Results on twelve molecules are retold here after patent US20250034594A1, “RNA-GUIDED GENOME RECOMBINEERING AT KILOBASE SCALE” (THE BOARD OF TRUSTEES OF THE LELAND STANFORD JUNIOR …, priority 2021, published 2025).

Holding throughout (type): cell-based
The subject of test [1] is gene editing with Cas9 and dCas9. Nature of the test: Screen of 322 new SSAP proteins, activity across all experiments (Cas9 and dCas9, Table 5). On the set-up: scale not given here. The gist of the method: (§1)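 Synthetic SSAP candidates, identified computationally, were tested in editing screens using both Cas9 and dCas9.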
The subject of a further test is gene editing with dCas9. Description: Screen of 322 new SSAP proteins, gene editing activity with dCas9 (Table 5). On the set-up: dCas9 with SSAP activity: scale not given here. Put shortly: as §1
A further test concerns gene editing with Cas9. Nature of the test: Screen of 322 new SSAP proteins, gene editing activity with Cas9 (Table 5). On the set-up: Cas9 with SSAP activity: scale not given here. Put shortly:
as §1

B1: SSAP_148: SEQ ID NO: 317; Corynebacterium liangguodongii (protein, listed as Corynebacterium liangguodongii)
chain: KDLETRMAANQQPAQQRPTTLADQIRGMEQQFALAMPKGAEASQLVRDALTALRQAPKLAQCTPQSVLGSLMTCAQLGLRPGVLGHAYLIPFYDRRAGGLVAQLVIGYQGLVELAHRSGQIKSLIARTVYENDVFDVDYGLEDKLVHKPYMGGDKGQPIAYYAVAKFTTGGHAFYVMSHPEMLDYRARFAKSAERGPWVDNFEAMALKTCVRQLSKWMPKSTELATAIAADESVRVDLTPDAINYPEHVDGEVVDAQGTTEDTAGEGEQSA
As for B1, the “Activity across all experiments” value in test [1] is −5.193. Besides, in the test with gene editing with dCas9, the “dCas9 with SSAP activity” value is given as −6.656 and the “dCas9 with SSAP activity (normalized)” value is −1.610. Moreover, in the test with gene editing with Cas9, the “Cas9 with SSAP activity” value is given as −3.731 and the “Cas9 with SSAP activity (normalized)” value is recorded as −0.574.

B2: SSAP_80: SEQ ID NO: 249 (protein)
chain: GHLVSKTEQDYIKQHYAKGATDQEFEHFIGVCRARGLNPAANQIYFVKYRSKDGPAKPAFILSIDSLRLIAHRTGDYAGCSEPIFTDGGKACTVTVRRNLKSGETGNFSGMAFYDEQVQQKNGRPTSFWQSKPRTMLEKCAEAKALRKAFPQDLGQFYIREEMPPQYDEPIQVHKPKALEEPRFSKSDLSRRKGLNRKLSALGVDPSRFDEVATFLDGTPDRELGQKLKLWLKEAGYGVNQ
Turning to B2, the “Activity across all experiments” value in test [1] is given as −5.479. Besides, in the test with gene editing with dCas9, the “dCas9 with SSAP activity” value is −7.200 and the “dCas9 with SSAP activity (normalized)” value is listed as −1.353. In the test with gene editing with Cas9, the “Cas9 with SSAP activity” value was −3.757 and the “Cas9 with SSAP activity (normalized)” value was −0.629.

B3: SSAP_149: SEQ ID NO: 318; unclassified Oscillibacter (protein, listed as Oscillibacter sp.)
chain: KEGLIQGTQSAQAAKKGPATMQDYIKKMQGEIAKALPSVLTPERFTRITLSALSTNPKLAQTTPKSFLGAMMTAAQLGMEPNTPLGQAYLIPFKNHGVLECQFQLGYKGLIDLAYRSGEVSTIQAQTVYENDEFEYELGLEPKLHHVPAKGERGEPVYFYAVFRTKDGGYGFEVMSVDDVRTHAKKYSKAYSNGPWQTNFEEMAKKTVLKKALKYAPLKTEFMRGLTSDETIKTEISEDMYSVPDETVIEAEGYEVDGDTGEVIERPADGQ
For B3, the “Activity across all experiments” value in test [1] is reported as −4.416. Further, in the test on gene editing with dCas9, the “dCas9 with SSAP activity” value is listed as −6.999 and the “dCas9 with SSAP activity (normalized)” value is reported as −1.192. Also, in the test on gene editing with Cas9, the “Cas9 with SSAP activity” value is −1.833 and the “Cas9 with SSAP activity (normalized)” value was −2.092.

B4: SSAP_297: SEQ ID NO: 466; Dysgonomonas capnocytophagoides (protein)
chain: STQQVQQQTKPLSLANFLNAPSTANFLKETLAEKKSEFVSNLIALCDADPKLAQCDPAQLMKCAMNATSLNLPLNKNLGYAYVIAYKGVPSFQIGYKGLIQLAIRTGQYKFINATEIREGEIRHNKITGEVIFNGEKPDAPIVGYMSYLELVNGFTASLYMTEEQIEQHALRFSQTYKNDKQYRSSTSKWSDPLARPTMCKKTVLKLLLGTYGLMTTEFAKALDSDSDDEVSTSGHRFEEAEIVQQGEPNEEQSDEPKRMEI
modifications: Dysgonomonas capnocytophagoides
Regarding B4, the “Activity across all experiments” value in test [1] was −6.274. Also, in the test on gene editing with dCas9, the “dCas9 with SSAP activity” value was −7.184 and the “dCas9 with SSAP activity (normalized)” value is −1.057. Further, in the test with gene editing with Cas9, the “Cas9 with SSAP activity” value is listed as −5.364 and the “Cas9 with SSAP activity (normalized)” value is −1.014.

B5: SSAP_322: SEQ ID NO: 491; Candidatus Dependentiae bacterium (protein)
chain: CHVLNFQTDYKGEIKLAHKYSVRKIIDIYAKVVRDGDVLEIRVENGSQIVNFNPKVFNDGKIIGAFAVVKFVDGSLLYETMSKSEIDHTRVTFSKMPNGMAWKDSEGEMCRKTVLRRICKLIDLHFDSVEQEQAWNDGSDADLTKNEPVKPEIQNPFPTKAVEAVIVTEEEKLRKQLKDKDPTLQDWQIDALVREHKEANQ
modifications: Candidatus Dependentiae bacterium
Regarding B5, the “Activity across all experiments” value in test [1] is recorded as 0.184. In the test with gene editing with dCas9, the “dCas9 with SSAP activity” value worked out at 0.082 and the “dCas9 with SSAP activity (normalized)” value is on record as 0.048. Besides, in the test with gene editing with Cas9, the “Cas9 with SSAP activity” value was 0.287 and the “Cas9 with SSAP activity (normalized)” value is reported as 0.247.

B6: SSAP_161: SEQ ID NO: 330; Solobacterium moorei (protein, listed as Solobacterium moorei)
chain: TEIKAAKAPATVAKAGVSTQNKTIKDYITIMKPEIEKALPSTITPERFTRITLSAVSNNPKLQACSPSTFLSAMMQSAQLGLEPNTPLGQAYLIPYGNSCQFQLGYKGLLQLAYNSGQIKTIRTETVYENDEFKYELGLHSDLVHVPAMSNRGNPTAYYAVIEYTNGGYGFEVMSHDDVLEHAKKFSKTFNNGPWQSDFESMAKKTVLKQALKYAPLSTELVSKINTDETVKSSISDHMEEVKNDIDLSQIIDAETGEIHE
For the molecule B6, the “Activity across all experiments” value in test [1] is on record as −0.857. Further, in the test on gene editing with dCas9, the “dCas9 with SSAP activity” value was −0.092 and the “dCas9 with SSAP activity (normalized)” value is reported as −0.051. Besides, in the test with gene editing with Cas9, the “Cas9 with SSAP activity” value is listed as −1.623 and the “Cas9 with SSAP activity (normalized)” value is −0.850.

B7: SSAP_179: SEQ ID NO: 348; Acetoanaerobium noterae (protein, listed as Acetoanaerobium noterae)
chain: SNLKNELAKKANNSVTDGNKEPQTIKDWIKVMEPAIKKALPSVITPERFTRMALTAISVNPKLAECTPKSFMGSLMNAAQLGLEPNTPLGQAYLIPYKNKGNMEVQFQIGYKGLIELAYRSGEFANIYAKEVFENDEFEYEFGLEPVLKHKPASGNRGEVIAYYAVFKLTNGGFGFEVMSKEDITNHAKTYSQAYSSSYSPWSKNFDEMAKKTVLKKVLKYAPIKVEFVKQIVQDSTIKTEINSDMTEVESQNVFEAEETDYEVIDQEETK
Consider B7, for which, in test [1], the “Activity across all experiments” value is −5.563. In addition, in the test with gene editing with dCas9, the “dCas9 with SSAP activity” value was −6.840 and the “dCas9 with SSAP activity (normalized)” value is −1.230. Further, in the test on gene editing with Cas9, the “Cas9 with SSAP activity” value is given as −4.285 and the “Cas9 with SSAP activity (normalized)” value is −0.748.

B8: SSAP_144: SEQ ID NO: 313; Romboutsia weinsteinii (protein, listed as Romboutsia weinsteinii)
chain: TNLKNTLKNKEAKGNNLAINPSYAMKQLMIKMKGEITSALPKELCSERFQRVALTAFNSNPKLQNCAPMTFIAAMMQSDQLGLEPNTPLGQAYLIPYKVKGIDKVQFQIGYKGLLELAHRSGRLKTLYAHEVRENDEFDIDYGLEQRLIHKPLLKGNRGEVIGYYAVYHLEHNGYSFVFMTYDEVLEHGKKYSKSFEGGIWEKEFDSMAKKTVIKKLLKYAPLSIEIQKAINFDESVKGSIDSDMLLVDKADESIDVEGNVLNQRGIKYGCI
B8: the “Activity across all experiments” value in test [1] is −4.771. For the same molecule, in the test on gene editing with dCas9, the “dCas9 with SSAP activity” value is given as −7.293 and the “dCas9 with SSAP activity (normalized)” value is −1.765. Besides, in the test with gene editing with Cas9, the “Cas9 with SSAP activity” value is −2.249 and the “Cas9 with SSAP activity (normalized)” value was −0.663.

B9: SSAP_88: SEQ ID NO: 257; Raoultella planticola (protein, listed as Raoultella planticola)
chain: TKQPPIAKADLQKTQGTRVSSPKGNNDVISFINQPSMKEQLAAALPRHMTAERMIRIATTEIRKVPALASCDTMSFVSAIVQCSQLGLEPGGALGHAYLLPFGNKNEKSGKKNVQLIIGYRGMIDLARRSGQIASLSARVVREGDEFSYEFGLEEKLTHRPGENEDAPVTHVYAVARLKDGGTQFEVLTSKQIELVRSQSKAANSGPWVTHWEEMAKKTAIRRLFKYLPVSIEIQRAVSIDEKEALTIDPADTSVLTGEYSVINSESEE
On to B9, for which the “Activity across all experiments” value in test [1] was −4.539. Besides, in the test with gene editing with dCas9, the “dCas9 with SSAP activity” value was −6.933 and the “dCas9 with SSAP activity (normalized)” value is on record as −1.193. For the same molecule, in the test with gene editing with Cas9, the “Cas9 with SSAP activity” value is given as −2.144 and the “Cas9 with SSAP activity (normalized)” value is given as −1.524.

B10: SSAP_131: SEQ ID NO: 300; Thermoclostridium stercorarium (protein, listed as Thermoclostridium stercorarium)
chain: TTVNQTELKNKLAEKAKTPAKTGNTVFDLIRKMEPEIKRALPKQISPERFARIAMTAVRNTPKLQACEPISFIAALMQSAQLGLEPNTPLGQAYLIPYGKEVQFQLGYQGMLTLAYRTGEYQSIYAMPVYANDEFEYEYGLNEKLVHKPAPDPEGEPIYYYAVYKLKNGGHGFVVMSRQQIERHRDKYSPSAKQGKFSPWNTDFDSMAKKTVLKQLLKYAPKSVEFATQIAQDETIKTEIAEDMTEVQGIEVEYEATDDQENQENQEQED
Regarding B10, the “Activity across all experiments” value in test [1] is given as −4.137. In the test on gene editing with dCas9, the “dCas9 with SSAP activity” value is recorded as −7.001 and the “dCas9 with SSAP activity (normalized)” value is on record as −0.946. For the same molecule, in the test on gene editing with Cas9, the “Cas9 with SSAP activity” value was −1.273 and the “Cas9 with SSAP activity (normalized)” value is −0.894.

B11: SSAP_79: SEQ ID NO: 248 (protein)
chain: EALLLRRWQMGNLTKTTGFALAPQNLEQAMQLATMICNSQLAPNNYKGKPEDTLVAMMMGHELGLNPLQSIQNIAVINGRPSIYGDALLALVQNSPAFGGIQESFDEDTMTATCTVWRKGGEKHTQHYSKDDADTAGLWGKQGPWKQHPKRMLAMRARGFAVRNQFADALAGLVTREEAEDMEKEINPTPAPQAQSKRIGQKQSRTQYSESDFNENFPKWKAAVESGKKTSEQIISMVSTKGDLTQGMIEAIESIEAGEPA
With B11, in test [1], the “Activity across all experiments” value is −4.489. Besides, in the test with gene editing with dCas9, the “dCas9 with SSAP activity” value is reported as −7.349 and the “dCas9 with SSAP activity (normalized)” value is reported as −2.203. In the test on gene editing with Cas9, the “Cas9 with SSAP activity” value is −1.629 and the “Cas9 with SSAP activity (normalized)” value is given as −2.086.

B12: SSAP_94: SEQ ID NO: 263; Providencia alcalifaciens (protein, listed as Providencia alcalifaciens)
chain: STPPLAKSDLQKTQGTEVKIKTNEQKLVEFINQPGMKAQLAAALPKHITSDRMIRIVSTEIRKTPSLANCDIQSFIGAVVQCSQLGLEPGNALGHAYLLPFGNGKSDNGQQNVQLIIGYRGMIDLARRSGQIISISARTVRQGDNFHFEYGLNENLTHIPEGNEDSPITHVYAVARLKDGGVQFEVMTYNQIEKVRNLSKAGKNGPWVTHWEEMAKKTVIRRLFKYLPVSIEMQKAVILDEKAEANIEQEHSAIFEAEFEEVDSNGN
As to B12, in test [1], the “Activity across all experiments” value was −3.670. Moreover, in the test with gene editing with dCas9, the “dCas9 with SSAP activity” value is reported as −7.000 and the “dCas9 with SSAP activity (normalized)” value was −1.112. Further, in the test on gene editing with Cas9, the “Cas9 with SSAP activity” value is listed as −0.340 and the “Cas9 with SSAP activity (normalized)” value was −0.087.
